# Laboratory results from US20250295802A1, “HER3 ANTIBODY-DRUG CONJUGATE AND USE THEREOF” (DUALITY BIOLOGICS (SUZHOU) CO., LTD., priority 2022, published 2025).
# Legend:
# [1] = target: HER3 on tumor cell lines (NCI-N87, MDA-MB-468, MDA-MB-453, HCC1569 and other cells with different HER3 surface levels) (UniProt P21860); assay: cell-based or functional assay
# [2] = target: HER3 on tumor cell lines (NCI-N87, MDA-MB-468, MDA-MB-453, HCC1569 and other cells with different HER3 … (UniProt P21860 20-1342, limits assumed)); assay: cell-based or functional assay
# human HER3-huFc [3] = target: T1, human HER3-huFc (human, UniProt P21860 20-643); assay: ELISA after 6 h of incubation at pH 3.5
# T1 construct: also called huHER3; not shown: human Fc (huFc)
# Method: (§1) Antibody stability test: the purified antibody at 5 mg/mL was stored at 4° C. as regular practice, incubated at 40° C. for 7 days and 14 days for heat stability evaluation, transferred to a glycine solution at pH 3.5 for regeneration, and stored for 2, 4 and 6 h for acid stability evaluation, or subjected to repeated freeze-thaw treatments for 4 or 6 cycles for freeze-thaw stability evaluation. Aggregation was measured by SEC-HPLC, and binding affinity was determined by ELISA.
# (§2) EC50 was determined by ELISA.
# human HER3-huFc [4] = target: T1, human HER3-huFc; assay: ELISA after 0 h of incubation at pH 3.5
# Method: as §1, §2
# human HER3-huFc [5] = target: T1, human HER3-huFc; assay: ELISA after 7 days at 40 °C
# Method: as §1
# (§3) The chimeric antibody 3F8 was subjected to parallel assay.
# human HER3-huFc [6] = target: T1, human HER3-huFc; assay: ELISA after 3 freeze-thaw cycles
# human HER3-huFc [7] = target: T1, human HER3-huFc; assay: ELISA after 4 h of incubation at pH 3.5
# Method: as §1, §2
# human HER3-huFc [8] = target: T1, human HER3-huFc; assay: ELISA after 14 days at 40 °C
# Method: as §1, §3
# His-HER3 = target: T2, His-HER3 (UniProt P21860 20-643, limits assumed); assay: SPR, Biacore T200, antibody captured on protein A chip, His-HER3 as analyte
# T2 construct: Analyte of the Biacore assay; not shown: His tag
# Method: Affinity assay by surface plasmon resonance (SPR): antibody kinetics and affinity were determined using Biacore T200. Briefly, the recombinant human HER3 antibody was immobilized on a protein A chip (GE, Cat. 29-1275-5).
# The binding affinity of humanized 3F8 (hu3F8) and chimeric 3F8. Binding kinetics of 3 humanized 3F8 clones and chimeric 3F8 were determined by Biacore. Three humanized 3F8 clones (clone 1, clone 2 and clone 3) had different heavy chains and one identical light chain. Clone 1, clone 2, and clone 3 corresponded to hu3F8-1, hu3F8-2, and hu3F8-3, respectively.
# human HER3-huFc [9] = target: T1, human HER3-huFc; assay: ELISA after 5 freeze-thaw cycles
# human HER3-huFc [10] = target: T1, human HER3-huFc; assay: ELISA, 0 freeze-thaw cycles
# human HER3-huFc [11] = target: T1, human HER3-huFc; assay: ELISA, 0 days at 40 °C
# Method: as §1, §3
# human HER3-huFc [12] = target: T1, human HER3-huFc; assay: ELISA after 2 h of incubation at pH 3.5
# Method: as §1, §2
# human HER3-huFc [13] = target: T1, human HER3-huFc; assay: ELISA after 0 h of incubation at pH 3.5; 0 h of incubation at pH 3.5 (untreated time point)
# Method: as §1, §2
Molecule,"HCC1569 IC50 (nM), inhibition of in vitro proliferation (CTG, 6 days) [1] [nM]","MDA-MB-453 IC50 (nM), inhibition of in vitro proliferation (CTG, 6 days) [1] [nM]","HCC1569 IC50 (nM), inhibition of in vitro proliferation (CTG, 6 days) [2] [nM]","MDA-MB-453 IC50 (nM), inhibition of in vitro proliferation (CTG, 6 days) [2] [nM]",EC50 (human HER3-huFc [3]) [mg/L],EC50 (human HER3-huFc [4]) [mg/L],EC50 (human HER3-huFc [5]) [mg/L],EC50 (human HER3-huFc [6]) [mg/L],EC50 (human HER3-huFc [7]) [mg/L],EC50 (human HER3-huFc [8]) [mg/L],Kd (His-HER3) [nM],koff (His-HER3) [s⁻¹],kon (His-HER3) [M⁻¹ s⁻¹],EC50 (human HER3-huFc [9]) [mg/L],EC50 (human HER3-huFc [10]) [mg/L],EC50 (human HER3-huFc [11]) [mg/L],EC50 (human HER3-huFc [12]) [mg/L],EC50 (human HER3-huFc [13]) [mg/L]
Reference ADC-1 (U3-1402) (antibody),40.7,9.62,,,,,,,,,,,,,,,,
"antibody-drug conjugate ADC-1-X1 (hu3F8-2-X1) (antibody, human IgG1, kappa, V domains shown, linker-payload X1 coupled after TCEP reduction; positions not given; linker-payload X1 coupled after TCEP reduction; positions not given; DAR 7.12 for the whole antibody) VH: QVQLQESGPGLVKPSETLSLTCTVSGYSITSAYYWNWIRQPFGKGLEWMGYISYDGRNNFNPSLKNRVTISRDTSKNQFSLKLSSVTAADTAVYYCARDGDYDYFDYWGQGTTVTVSS VL: DIQMTQSPSSLSASVGDRVTITCRASQDISNYLNWYQQKPGKAPKLLIYYTSILHSGVPSRFSGSGSGTDYTFTISSLQPEDIATYFCQQGDTLPPTFGGGTKLEIKR",,,0.115,0.042,,,,,,,,,,,,,,
"humanized 3F8 antibody hu3F8-2 (antibody, human IgG1, kappa, V domains shown, also called Clone 2; clone-2) VH: QVQLQESGPGLVKPSETLSLTCTVSGYSITSAYYWNWIRQPFGKGLEWMGYISYDGRNNFNPSLKNRVTISRDTSKNQFSLKLSSVTAADTAVYYCARDGDYDYFDYWGQGTTVTVSS VL: DIQMTQSPSSLSASVGDRVTITCRASQDISNYLNWYQQKPGKAPKLLIYYTSILHSGVPSRFSGSGSGTDYTFTISSLQPEDIATYFCQQGDTLPPTFGGGTKLEIKR",,,,,0.0412,0.045,0.0481,0.0467,0.0445,0.052,0.492,0.000328,666000,0.0438,0.0425,0.0454,0.0483,
"antibody-drug conjugate ADC-1-X2 (hu3F8-2-X2) (antibody, human IgG1, kappa, V domains shown, linker-payload X2 coupled after TCEP reduction; positions not given; linker-payload X2 coupled after TCEP reduction; positions not given; DAR 7.53 for the whole antibody) VH: QVQLQESGPGLVKPSETLSLTCTVSGYSITSAYYWNWIRQPFGKGLEWMGYISYDGRNNFNPSLKNRVTISRDTSKNQFSLKLSSVTAADTAVYYCARDGDYDYFDYWGQGTTVTVSS VL: DIQMTQSPSSLSASVGDRVTITCRASQDISNYLNWYQQKPGKAPKLLIYYTSILHSGVPSRFSGSGSGTDYTFTISSLQPEDIATYFCQQGDTLPPTFGGGTKLEIKR",,,5.17,0.094,,,,,,,,,,,,,,
"humanized 3F8 antibody hu3F8-3 (antibody, human IgG1, kappa, V domains shown, also called Clone 3; clone-3) VH: QVQLQESGPGLVKPSETLSLTCTVSGYSITSAYYWNWIRQPFGKGLEWMGYISYDGRNNFNPSLKNRVSISRDTSKNQFSLKLSSVTAADTATYYCARDGDYDYFDYWGQGTTVTVSS VL: DIQMTQSPSSLSASVGDRVTITCRASQDISNYLNWYQQKPGKAPKLLIYYTSILHSGVPSRFSGSGSGTDYTFTISSLQPEDIATYFCQQGDTLPPTFGGGTKLEIKR",,,,,0.0381,0.0387,0.047,0.0374,0.0394,0.0413,0.54,0.000348,644000,0.0336,0.0423,0.0424,0.0417,
"humanized 3F8 antibody hu3F8-1 (antibody, human IgG1, kappa, V domains shown, also called Clone 1; clone-1) VH: QVQLQESGPGLVKPSETLSLTCTVSGYSITSAYYWNWIRQPPGKGLEWIGYISYDGRNNFNPSLKNRVTISVDTSKNQFSLKLSSVTAADTAVYYCARDGDYDYFDYWGQGTTVTVSS VL: DIQMTQSPSSLSASVGDRVTITCRASQDISNYLNWYQQKPGKAPKLLIYYTSILHSGVPSRFSGSGSGTDYTFTISSLQPEDIATYFCQQGDTLPPTFGGGTKLEIKR",,,,,0.039,,0.0423,0.0443,0.0409,0.041,1.09,0.000612,560000,0.0386,0.0454,0.0392,0.0381,0.0387
"chimeric 3F8 antibody (antibody, human IgG1, V domains shown, also called ch3F8; Chimeric antibody) VH: DVQLQESGPGLVKPSQSLSLTCSVTGYSITSAYYWNWIRQFPGDKLEWMGYISYDGRNNFNPSLKNRISITRDTSKNQFFLKLNSVTSGDTATYYCARDGDYDYFDYWGQGTTLTVSS VL: DIQMTQTTSSLSASLGDRVTISCRASQDISNYLNWYQQKPDGTFKLLIYYTSILHSGVPSRFSGSGSGTDYSLTISNLEQEDIATYFCQQGDTLPPTFGAGTKLELK",,,,,,,,,,,0.624,0.000391,628000,,0.0471,0.0474,,
